Experimental findings from patent publication US20180327803A1 are described below.

In this test the target is human IgG1 antibody (#I5154; Sigma-Aldrich) (human). The test is described as follows: SPR, single cycle kinetics, IgG1 chip. (Surface plasmon resonance follows binding to a sensor surface in real time, without labels.)

B1: R3-75 rabbit-derived single-chain antibody-His (scFv)
scFv: QSVKESGGRLVTPGTPLTLTCTVSGIDLSSNAMSWVRQAPGEGLEWIGTISTVGKTYFASWAKGRFTISKTSTTVDLRITSPTTEDTATYFCATRYDSYGYAYNYWFGTLWGPGTLVTVTSGGGGSGGGGSGGGGSELDLTQTPPSVSGAVGGTVTIKCQASENINSELAWYQQKPGQRPKLLIYDASKLASGVPSRFSGSGSGTEYTLTISGMQCDDAATYYCQSTYYDGNYVYAFGGGTEVDVTRSHHHHHH
Consider B1, for which the Kd – broadly, a measure of binding affinity in units of concentration – was 0.55 nM; the koff (usually the first-order rate constant of dissociation) came out at 3.7e-05 s⁻¹; the kon (in general, a measure of how fast the partners come together) amounted to 67000 M⁻¹ s⁻¹.

B2: R2-18 rabbit-derived single-chain antibody-His (scFv)
scFv: QSLEESGGRLVTPGTPLTLTCTVSGIDLSSNAMTWVRQAPGEGLEWIGTISTGGSTYFASWAKGRFTISKTSTTVDLKITSPTTEDTATYFCATRYDSYGYAYNYWFGTLWGPGTLVTVTSGGGGSGGGGSGGGGSELVMTQTAASVSEPVGGTVTIKCQASQNINNELAWYQQKPGQRPKLLIYDASKLASGVPSRFSGSGSGTEFTLTISGMQCDDAATYYCQSTYYDGNYVYAFGGGTEVDVKGSHHHHHH
For the molecule B2, the Kd was 4.8 nM, the koff was 0.00012 s⁻¹ and the kon amounted to 25000 M⁻¹ s⁻¹.

B3: R1-7 rabbit-derived single-chain antibody-His (scFv)
scFv: QSLEESGGRLVTPGTPLTLTCTVSGIDLRRYAMGWVRQAPGKGLQWIGIIASGNTDYASWAKGRFTISATSTTVDLKITSPTTEDTATYFCARYSGDNGGTLNLWGPGTLVTVTSGGGGSGGGGSGGGGSELVMTQTAASVSEPVGGTVTIKCQASQSISSYLAWYQQKPGQPPKLLIYAASNLASGVSSRFKGSGSGTEFTLTISDLECADAATYYCQSYYSISSYGNTFGGGTEVEITGSHHHHHH
Take B3: the Kd came out at 24 nM, the koff came to 0.0017 s⁻¹ and the kon amounted to 71000 M⁻¹ s⁻¹.

B4: R3-23 rabbit-derived single-chain antibody-His (scFv)
scFv: QSVKESEGRLVTPGTPLTLTCTVSGFSLSRYAVSWVRQAPGKGLEWIGIIGSGGSTSYATWARGRFTISKTSTTVDLKITSPTTEDTVTYFCGSYYDSHGYAYVSLWGPGTLVTVTSGGGGSGGGGSGGGGSELVLTQTPSPVSGAVGGTVTINCQASQSISTALAWYQQKPGQPPKLLIYSASTLASGVSSRFKGSGSGTGFTLTISDLECADAATYYCQSYYGSSSDNAFGGGTEVVIKRSHHHHHH
B4: the Kd came out at 11 nM, the koff stood at 0.00013 s⁻¹ and the kon worked out at 11000 M⁻¹ s⁻¹.

B5: R2-16 rabbit-derived single-chain antibody-His (scFv)
scFv: QSVKESGGRLVTPGTPLTLTCTVSGFSLSSYAMGWVRQAPGKGLEYIGIISSSGSTYYASWAKGRFTISKTSTTVDLKITSPTTEDTATYFCARYSGDNGGALNLWGPGTLVTVTSGGGGSGGGGSGGGGSELDLTQTAASVSEPVGGTVTISCQSSQHIRSYLAWYQQKPGQPPKLLISAASTLASGVSSRFKGSGSGTEFTLTISDLECADAATYYCQRYYDIRNYGNGFGGGTEVEITGSHHHHHH
Regarding B5, the Kd turned out to be 2.5 nM, the koff was determined as 0.00032 s⁻¹ and the kon was 130000 M⁻¹ s⁻¹.

B6: R1-27 rabbit-derived single-chain antibody-His (scFv)
scFv: QQQLMESGGGLVTPGTPLTLTCTVSGIDLRRYAMGWVRQAPGKGLQWIGIIASGNTDYASWAKGRFTISATSTTVDLKITSSTTEDTATYFCARYSGDNGGTLNLWGPGTLATVTTGGGGSGGGGSGGGGSELVMTQTAASVSEPVGGTVTIKCQASEHIRNYLAWYQQKPGQPPKLLIYTTSNLASGVPSRFSGSGSGTEYTLTISDLECADAATYYCQNYYDISTYGNTFGGGTEVDVKGSHHHHHH
B6: the Kd was 40 nM, the koff stood at 0.0004 s⁻¹ and the kon turned out to be 9900 M⁻¹ s⁻¹.
